From PMC4490410

How the values were obtained:
Settings in all cases: remark: other sources report otherwise
[1] = molecular target: T1, DJ-1 (endogenous, human) (human (endogenous in human brain, M17D cells, iPSC-derived neurons)), Q99497; test: cross-linking; intact neurons differentiated from A53T patient iPSCs or the corrected isogenic line; DSG; sequential extraction, cytosol blotted with 2F12, C20, Syn1
T1 chain: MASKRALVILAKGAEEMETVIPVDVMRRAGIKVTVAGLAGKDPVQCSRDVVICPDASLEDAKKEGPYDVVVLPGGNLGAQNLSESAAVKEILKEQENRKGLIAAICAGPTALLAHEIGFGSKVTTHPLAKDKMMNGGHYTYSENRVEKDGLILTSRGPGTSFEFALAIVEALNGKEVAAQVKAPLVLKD

[2] = molecular target: T1, DJ-1 (endogenous, human) (human …); test: cross-linking; intact-cell crosslinking of minced, washed fresh human cortical biopsy; 1 mM DSG at increasing volume-to-protein ratio (DSP reduced by βME for total αS), 37 °C 30 min; then PBS ('cytosol') and TX-100 ('membrane') fractions, western blot
[3] = molecular target: T1, DJ-1 (endogenous, human) (human …); test: cross-linking; intact M17D cells transiently transfected with untagged αS variants; 1 mM DSG or 1.75 mM DSP, 30 min 37 °C; cytosol (PBS) or PBS/1% TX-100 lysate, western blot (Syn1) densitometry; values of the fPD mutants from a meta-analysis of DSG and DSP experiments

Measured: stoichiometry N

B1: DJ-1 (endogenous, human), Q99497 1-189 (natural protein)
chain: T1 chain
2: [1] | [2] | [3]
